Measured values published in US12103951B2, “Use of CGRP receptor antagonists in neuroprotection and neurological disorders” (priority 2016, dated 2024).
Entries after “also recorded” stand apart in the source; their conditions may differ. Like-named read-outs stand apart in the source and are kept apart here. Marks after values point to notes of the source that are not given here.

Columns and labels:
[1] = test system: C-nociceptors; experiment: Spontaneous activity in C-nociceptors, rat crush-induced sciatic neuropathy (microneurography); details: 25 μg/Kg i.p.; for spontaneous activity in C-fibers (action potentials recorded in the sciatic nerve): after administration, FIG. 1
Procedure: To investigate the effects of a CGRP receptor antagonist on pathological spontaneous activity in C-nociceptors the following experiments were performed on Sprague-Dawly rats. Crush-inducing sciatic neuropathy was produced in 12 male Sprague-Dawley rats. Spontaneous activity in injured C-nociceptors was then detected with microneurography and the response to CGRP receptor antagonist was assessed under unblind conditions. This study aimed to assess the effect of the CGRP receptor antagonist, on electrophysiological measures of spontaneous activity in subpopulations of injured C-nociceptors in a model of neuropathic pain, and to investigate the effects of the CGRP receptor antagonist on pathological spontaneous activity in peripheral C-nociceptors.
All surgical procedures were performed under general anesthesia (ketamine 90 mg/kg+xylazine 10 mg/kg i.p. (intraperitoneal)). The sciatic nerve was exposed at mid-thigh level. A standardized injury was produced by crushing the nerve three times in succession with a very fine point forcep at a constant point, 90 mm from the tip of the third digit. The wound was then sutured by layers and disinfected with povidone iodine. The animals received an analgesic subcutaneous (s.c). dose of buprenorphine and were maintained in a warm environment until full recovery from the anesthetic, and were allowed to recover from the nerve injury for a minimum of 70 days.
CGRP receptor antagonist (SEQ ID NO: 1) was dissolved according to manufacturer's instructions in saline solution, at a final concentration of 25 μg/Kg. Volumes of the intraperitoneal (i.p.) injected bolus ranged from 0.48 to 0.58 ml.
Animals weighing 478±36 g (mean±SD) on the day of the recording were anesthetized with ketamine (90 mg/Kg) and xylazine (10 mg/Kg) injected i.p (intraperitoneal). Repeated administrations of one-half of the initial dose were performed as required to maintain the level of anesthesia, usually every hour.
Recordings of the sciatic nerve electrical activity were obtained inserting a tungsten microelectrode (FHC, Bowdoinham, ME, USA, nominal impedance 50-100KΩ, shaft Ø 175 μm (Ø=diameter)) into the sciatic nerve trunk with the aid of a micromanipulator. The recording electrode was carefully advanced into the nerve with the micromanipulator until characteristic neural audio signal could be heard. The method follows the same principles of the microneurographic technique employed in human patients.
The neural signals were first amplified with an isolated, high input impedance amplifier, band-pass filtered (maximum range 50-5000 Hz) and passed through a noise eliminator. The signal was then fed to an AM10 audio-monitor with noise clipper (Grass Technologies, Warwick, RI, USA) and to computers running separate software for collecting spontaneous and electrically evoked activity. Electrical stimuli were delivered to the cutaneous receptive field of the units by means of a constant current stimulator (DS7A, Digitimer, Welwyn Garden City, Hertfordshire, UK).
Electrical stimuli were triggered and the responses to electrical stimulation recorded and analyzed with a PC and PCI-6221M data acquisition board (National Instruments, […], USA) running QTRAC software (©Institute of Neurology, London, UK). Spontaneous activity was digitized at 20 kHz and recorded continuously on one of the computers running LabChart software (PowerLab Systems, ADInstruments Ltd., Bella Vista, New South Wales, Australia). Analysis was performed with software written by Neuroscience Technologies, Science Park of Barcelona, Spain, to detect and quantify spontaneous activity.
Trigger pulses were delivered to the stimulator at different frequencies necessary to induce ADS of conduction velocity of the recorded C-fibers. The digitized responses were stored on computer as raw data for off-line analysis.

[2] = test system: Total Cholesterol, Triglycerides, Low-density lipoprotein and High-density lipoprotein; assay type: in vivo, Sprague Dawley rats; set-up: HDL / LDL: unit not given here; details: for HDL / LDL / T. Chol / Trig: mean, n = 5; for effect on LDL levels in rats (words): normal rats, s.c. daily 14 days, especially male rats, every test dose 100 to 1000 mcg/kg
Procedure: Sprague Dawley rats were administered the CGRP antagonist daily via the subcutaneous route for a period of 14 days, resulting in the surprising effect of LDL lowering. Fifty six animals (36 males and 20 females) were distributed into four groups (consisting each of 5 males and 5 females per group and 4 extra males each for testing group as backups). The groups were as follows: G1—Control, G2—Low dose—100 mcg/kg, G3—Intermediate dose—300 mcg/kg, G4—High dose—1000 mcg/kg.
Rats from the treatment groups were dosed subcutaneously with CGRP receptor antagonists (SEQ ID NO: 1) reconstituted with normal saline at different dose levels per treatment group for 14 days. Control animals were dosed with the vehicle alone.
The acclimatization period was, at a minimum, 7 days. For the randomization, animals were selected and grouped based on stratified randomization by using body weights one day before dosing (day 0) using an Excel program. The route of administration of the antagonist was by a subcutaneous method. The frequency of the administration was daily for fourteen days. The dose volume was set at 5 ml/kg of body weight. The duration of the treatment was fourteen days with administration occurring approximately at the same time each day.
While preparing the dose formulation, required quantities of test item (i.e. CGRP antagonist) was weighed separately. The required volume of normal saline was added to the test item. A clear solution was obtained after addition of normal saline to test item. The test item was administered subcutaneously at the desired dose level once daily for up to 14 days. Homogeneity of the test item in the vehicle was maintained during administration.
The following observations were recorded: • 1. […] Body Weight • Body weight was recorded on day 1, 7, 11 and 15. • 3. Feed Consumption • Feed consumption was recorded daily and reported weekly. • 4. Blood Collection and Laboratory Investigations • Blood samples for were collected from all animals on day 15. The animals were fasted overnight before blood sampling but allowed access to water ad libitum for hematology and biochemistry. Blood samples were drawn from the retro-orbital plexus using a micro-hematocrit heparinized glass capillary tube. Blood samples were centrifuged (3500 rpm) and after centrifugation plasma was separated for further analysis.
Total Cholesterol, Triglycerides, Low-density lipoprotein and High-density lipoprotein parameters are shown in Tables 4 and 5, for male and female rats, respectively. Data from the LDL analysis is shaded.

[3] = 10 min before vs 10 min after administration, paired t-test, listed as CGRP receptor antagonist
[4] = female rats, 100 mcg/kg b.w. s.c. daily 14 days, day 15
[5] = female rats, 300 mcg/kg b.w. s.c. daily 14 days, day 15
[6] = female rats, 1000 mcg/kg b.w. s.c. daily 14 days, day 15
[7] = male rats, 100 mcg/kg b.w. s.c. daily 14 days, day 15
[8] = male rats, 300 mcg/kg b.w. s.c. daily 14 days, day 15
[9] = male rats, 1000 mcg/kg b.w. s.c. daily 14 days, day 15

NH2-Ala-Cys-Asp-Thr-Ala-Ala-Cys-Val-Leu-Gly-Arg-Leu-Ser-Gln-Glu-Leu-His-Arg-Leu-Gln-Thr-Tyr-Pro-Arg-Thr-Asn-Val-Gly-Ser-Lys-Ala-Phe-NH2 (H-ACDTAACVLGRLSQELHRLQTYPRTNVGSKAF-NH2; ends and bridges not checked) [SEQ ID NO: 1, peptide CGRP receptor antagonist]
SLI/10 min (Significant Latency Increase) [1, 3]: did not reveal a statistically significant effect; also recorded: No significant differences were observed | TI (%) (Total Increase) [1, 3]: did not reveal a statistically significant effect; also recorded: No significant differences were observed | spontaneous activity in C-fibers (action potentials recorded in the sciatic nerve) ([1]; rat crush sciatic neuropathy): preventing further spontaneous activity in the C-fibers | spontaneous activity in C-fibers (action potentials recorded in the sciatic nerve) ([1]; rat crush sciatic neuropathy, listed as CGRP receptor antagonist): virtually no excitation observed | spontaneous activity at long intervals after the administration ([1]; rat crush sciatic neuropathy, up to 90 min): less spontaneous activity | Morbidity and mortality ([1]; rats, whole procedure): in good condition during the whole procedure | other non-cholesterol related clinical biochemistry parameters ([2]; day 15, vs control, data not shown): none were significantly different from control | HDL [2, 4]: 59.00 | LDL [2, 4]: 11.08 | T. Chol [2, 4]: 84.20 mg/dL | Trig [2, 4]: 70.60 mg/dL | HDL [2, 5]: 61.60 | LDL [2, 5]: 12.60 | T. Chol [2, 5]: 91.00 mg/dL | Trig [2, 5]: 84.00 mg/dL | HDL [2, 6]: 54.80 | LDL [2, 6]: 9.40 | T. Chol [2, 6]: 80.60 mg/dL | Trig [2, 6]: 82.00 mg/dL | HDL [2, 7]: 51.60 | LDL [2, 7]: 2.96 | T. Chol [2, 7]: 78.00 mg/dL | Trig [2, 7]: 121.40* mg/dL | HDL [2, 8]: 46.00 | LDL [2, 8]: 4.16 | T. Chol [2, 8]: 69.60 mg/dL | Trig [2, 8]: 97.20 mg/dL | HDL [2, 9]: 37.00 | LDL [2, 9]: 4.72 | T. Chol [2, 9]: 58.20 mg/dL | Trig [2, 9]: 82.40 mg/dL | effect on LDL levels in rats (words) [2]: lowered LDL concentrations in blood | effect on LDL levels in rats (words) ([2]; listed as CGRP antagonist): LDL lowering | effect on LDL levels in rats (words) ([2]; listed as CGRP receptor antagonist): substantial LDL lowering | effect on LDL levels in rats (words) ([2]; listed as peptide CGRP antagonist): lowering the LDL levels
